B1: ATRAP-HA [not stated] / GST-AP4μ^160–453 [not stated] (parent complex)
chain 1: MELPAVNLKVILLGHWLLTTWGCIVFSGSYAWANFTILALGVWAVAQRDSIDAISMFLGGLLATIFLDIVHISIFYPRVSLTDTGRFGVGMAILSLLLKPLSCCFVYHMYRERGGELLVHTGFLGSSQDRSAYQTIDSAEAPADPFAVPEGRSQDARGY
chain 2: QQSKVAPSSAASRPVLSSRSDQSQKNEVFLDVVERLSVLIASNGSLLKVDVQGEIRLKSFLPSGSEMRIGLTEEFCVGKSELRGYGPGIRVDEVSFHSSVNLDEFESHRILRLQPPQGELTVMRYQLSDDLPSPLPFRLFPSVQWDRGSGRLQVYLKLRCDLLSKSQALNVRLHLPLPRGVVSLSQELSSPEQKAELAEGALRWDLPRVQGGSQLSGLFQMDVPGPPGPPSHGLSTSASPLGLGPASLSFELPRHTCSGLQVRFLRLAFRPCGNANPHKWVRHLSHSDAYVIRI

Variants of: B1
Test: GST pull-down, immunoblot quantification; bound protein normalized to the 2% loading; sum of both groups normalized to 1 in each replicate; n = 4, mean ± SD; parent: 0.71; read off a plot

response	Variant
~0.29	chain 1 Y133A

Source: publication PMC12519218 (2025)
